experiment: label from the status in PepcDB records
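Further: failed if final PepcDB status was selected cloned or expressed and not failed if soluble or beyond.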

**Q.** With “MTNNLKQRRIILDLAVTLDGFIEGKNGEVDWCIMDPDMGFTDFLNQIDTILYGRKSFDLWGQYIPKNEDPDTEKELWKLVHSKKKYVFSRTQNEIDNQAIFINDNILEEVNKLKKNPGKDIWLYGGASLITTFINLGLVDEFRLSIHPVVLGEGKPLFIDVKQRINLKMVNTRTFSSGVVQIVYHWNG” as the sequence, how does the protein production read?
**A.** Its protein production is “not failed”.

**Q.** For “MTNNSTKVCVLLATYNGTKWCLDQVKSILNQEDVNLEVFVSDDLSSDSTTDLLALLNDSRIHILASSYKFGSACQNFFRLVRDVDFSEYDYIAFADQDDLWNPNKLSYSIEQLNAHCADAFSSNVTAFWPDGRARLIVKDQPQREWDFLFESAGPGCTFVLTKKLACNLANFLHNNYEKTKGVALHDWFTYAFARSNSYSWWIDSQPTMMYRQHESNEFGVNSGVTAALSRFRKTSNGWYRNQVILIGDLVGAEDSWPIKRMRRFSLLDRMLLLFNVFAFRRSFRDRIALFFLLLLPQKKLEHHHHHH”, which protein production is on record?
**A.** The protein production was “not failed”.

**Q.** Which protein production does the source give for “MTNSEVSTDLPDKPTSDNEQPDKATSDKEQLGKPPSDRDLRNPTSRLRARLQLIGGALASIAAIGAIAGGLVGYWTVWKTLRTDVFPDKQQTQREATARPDVAPRLSLVVLPFANLNNDPEQDYFADSITTDLTTDLAQMPGAFVIGRGTAFTFKNKQIDFKTLGKELGIRWAVQGAVRRNGDQIRVNVSLTDAASGRDIWSDRFDGDRTNLAALQDQITGRLARSLNIELMQAESRRSEKDQSRNPDAMDFTMRGWAKFYEPRSKTEIAQAKDLFDRALHLDPDNVDAMIAKAWCLAIAAGFRWSTSMAEDKEIATDLIDRALAKSSSNALAYVVKGDTLRVFGRPEEALPEYDAALEINPNFPIAYAQKGLALILSGRAREAFSPLQLALRLSPKDPIAVSWYYNLCHAHLHLQEYEEATKDCRRVININNAFWYAYVDLVSAYGASGQLEPARQSLTELNKIRPDFTIQWFREFGYGYSSNPQFRREFDEILDGLRKGGVREQ” here?
**A.** The protein production was “failed”.

**Q.** Which protein production does the source give for “MTNTRNENLGYVYGLIAVTAFALTLPAMRAALSALDPVFVALGRGAGAAVLAAVFLWFTRQRLPTREEAKGLIIVAAGAVIGFPLLAAWAMLYVDASHGGVVLGILPLATAVAAALFSNERPSMKFWLFALIGAGLVVGYSLSRAGGTLHPADLALFGSIVCAGVSYAEGARLSKSLGGPQVISWALVFSFPILIIPAIHYAPVSLNLPLESWLGFIYLTVISQYLGFFPWYHGLALGGIAKVGQTQLLQPFLTIIASVLLLGEHADLMTWLVATLVVAVVAVGKHAQVKHNDPESATIADTSPHS” here?
**A.** The protein production was “failed”.

**Q.** For “MTNVGRPIETHAITVGQGSDARSIAALVRAPAQDERPTCIWLGGYRSDMTGTKALEMDDLAASLGVGAIRFDYSGHGASGGAFRDGTISRWLEEALAVLDHFKPEKAILVGSSMGGWIALRLIQELKARHDNPTQVSGMVLIAPAPDFTSDLIEPLLGDRERAELAENGYFEEVSEYSPEPNIFTRALMEDGRANRVMAGMIDTGCPVHILQGMADPDVPYQHALKLVEHLPADDVVLTLVRDGDHRLSRPQDIDRMRNAIRAMIEPRP”, which protein production is on record?
**A.** The protein production was “not failed”.

**Q.** With “MTPAARLSAAIGILDRILGGTPAEQALTNWGRASRFAGSGDRAAVRDLVFDALRCRRSFARAGGAETGRGLVLGGLRMAGQEVGDLFTGEGHAPAPPAGSELKPQAPAELEALDCPDWLAPALRDSLGADFAPVMEALRHRAPVFLRVNLARTDRAAAAAELAAEGIVTQPHPLAETALEVTENPRRLQASAAYREGRVELQDAASQAIVAALPLAPGDRVLDYCAGGGGKSLAMAARAPIDLSAHDADPRRMRDLPERAARAGVKVRRLAPGDPARRGPFDLVLADVPCSGSGSWRRAPEGKWSLTPERLAELRAIQSTILDEVAPLVRPGGHLAYATCSLLASENAGQTEAFLERTSGWTRVHQLRLTPLDGGDGFFLDLLQRNG” as the sequence, how does the protein production read?
**A.** The protein production was “failed”.

**Q.** For “MTPATTTLVFTYGTLKRGFSNHVLMQDLIRSGDASFKGVYQTLDKYPLVCGPYRVPFLLNKPGSGYHVNGELYAVSPRGLSRLDELEGISRGHYIRQPIRLAAAEEEEEEEGDLETEAPSSCVVEAYYAHKSYEEELWRRNRGRSFGAYTENEARGYVKRNDRPQHLSFLDHIRIFVSSPCD”, which protein production is on record?
**A.** Its protein production is “failed”.

**Q.** For “MTPDIRLRVDGRAIVLLTAGCAPGLCPAFAFWACKASAPGRSIAVTPMRSEQQQTDQHADTLHPYACECHAAHLPSSRKKARMRASLFKFGLNLWRPFLFAGIHVTVLSEDYRFARVELRHRPWNRNYVGTHFGGSLFAMTDPFWMLLTIHNLGRDYYVWDKAGNIEFVKPGRGTLTADFVIDDSLLAQLRQATASGEKHLRWFENEVHHRDGEVVARVRKQLYVKRKPAR”, which protein production is on record?
**A.** The protein production was “failed”.

**Q.** Which protein production does the source give for “MTPFPAYVPPDFTRPDLAAAPPVRVAEAPGSGVLPAGFHATSNYPEYVHLGGGRWLLASGSRMDAVLVLDGDMLRVVEPRLVRRGDRVVVGRTENGEEGIYVHTTGFDAPAGAGGDKFTFRSRGTRESPFSRSYEELYDILRHDRDHGHIVWVLGPAVAFDRDSRAAMAGLIGGGYCHALLAGNALATHDLEAALFHTGLGQDIYTQALVAGGHYHHLDVINEVLRHGSLERAIAELGIRDGIIRACLEHRVPVVLAGSIRDDGPLPDVITDSRQAQDAMRAHARRATTVIALATQLHAIAVGNMTPSYRVLDDGTVRPVYFYIVDMSEFGADKLANRGSGQARAILTNVQDFMVNLWNNLKG” here?
**A.** Its protein production is “failed”.

**Q.** For “MTPFTLCAATSSGNPHNNHYPNHHHITDQTSLEQVAWLDHVAATYTGDRRSSASFISSDCVVMDIDNDHTDNPDEWITPDDLAELMAGVEFMTATSRNHQKPKRTLSARPRFHVYFPISPVTDADTYAGLKRRLAGRFGFFDPQALDAGRFIYGTTNPETTIHNGTKLLDAWLDEADEIDVFAAFDASTQVIGEGSRNATLSRFAGRVLIRYGQTAQARDLFDRKASLCEPPLSDHELESIWQSACRFAAKVEAQPGYLSPEAYAELTSLRPEDFTDVGQASMLTAEYSSRLAFTEATDWLVYEGGVWSESAPAAQGIAQELTDRQLAEAGHLLEKARDELMVTGANAVLAAASSKAKALGGFTSPQRAAYRAFEDAKAYEAFVLKRRESRAITSCLREAHPMLLTTPARLDADPYLLNTPGGTWDVRDGTRRDHNPLDLITKQTALDPTDTGAEIWNRALNVFFQSDRELIGYVQRIVGLAAIGTVMVEALVIAYGDGRNGKSTFWNTIARVLGTYAGNMSADVLTIGGNRNVKPELAEAKGKRLIIAAESEEGVRLSTSTVKQLASTDQIYAEKKYKAPFAFTPSHTLILYTNHLPRVGAMDAGIWRRLIVIPFNAVIESSSDVKNYADHLYETAGGAVLAWIMEGSRLIHAEDYQLTPPAQVVAASSAYREENNWFAQFLDARCEVDPSLSERAGDLYQEYRAWAQSTSGWARPMADFNATLEQSGFERRKSKHGMYVYGLALTSEFNS”, which protein production is on record?
**A.** The protein production was “failed”.

**Q.** For “MTPGSNIPLSAARVTVDVAAPVRLDVSGLLLTADGKVRSDDDFIFYNQPTGQGVTYRSGGGSAPDAIVVDTSAVPPGIEKIVVTASPDAAGQTFQGIEPTATIRNADDNAVLATFTPPQLGTETALVIVEVYLRNGAWKARAVGQGYSNGLAGIATDFGVTVEEPAAPATPPQPQAVTPPPPPAAAPTMPAAPPAPPAAPPAPAPGTGKINLDKGRVSLQKNQTVSLVKGGRPVLSQVKMGLGWEPAYRGKDIDLDASVIAYGPQRNHIDSCYFGKLSIVNGAIKHSGDNLTGEGGGDDEVIVVDLGRLPQEVSGLVFTVNSFSGQKFTEVAKAYCRLIDAASGEELVRFDLTSAEPQTGVMMAKLIRQYSGEWEMTAIGDFVKSRTVRGMVKPAAQAL”, which protein production is on record?
**A.** Its protein production is “failed”.

**Q.** With “MTPLHGAATPASASAAGSMKASHEASADPRSRFFDERAATWEQRCYPPEARRRLAALVPRFGVERGDCVLDMGTGTGVLIPYLRDGVGDAGRILSFDVSFEMVRRAGCKERDAKGLCVQATAMRIPARDGVFDRVVCFAAFPHFADKPAAMREMARVVRPGGEVVIAHLLSRAELARHHGGHPAVAEDALPDDATMRGLMHDAGLVEGSITDGPGMYVARARKPRTCRAGEGGVPGTPGTPGGRAGGSAGGEGAESAIAGDAEGNGSGVEAGFEARRVFTALKQNDAMHHSAVYGVLSGLLRAFACDAALPHGAPGQGGALRILDVGCGEAADVVQALEGVTVGAYTGVDTSAPALAEARRHLAALGCPVTLIEGDYRLALNTSQGSVDVLWMGLFLHHLPRALKADFLHTAHGLLAPGGMVLAHDPIMGEDDTRETMLARMEAIGRERWHFLTPEEVGMVHRHWSCHGHQERFSDLCALGEAAGFEVDMVWHDADRTYGLVRFMRRG” as the sequence, how does the protein production read?
**A.** The protein production was “failed”.

**Q.** For “MTPLMLMVVAGAGIALLLFLVLKYKFQPFVALMLVSIIVALVAGVKPADLVATIEGGMGKTLGHIAIIIALGAMIGRIIELSGGAEALAKTLINRFGNRRTPLALTVAGFMVGIPVFFEVGVIILMPLAYGVARAARKPLLIFALPMCAALLAVHAFLPPHPGAVAAASQLGADLGRVLMLGIPIVAVLCMIGYFVAGRMTRKTYPMTDDIRAEVYGPHVTNEDLEAWARNDYSGAREATETKTLGAEESASSLASKLPPAPAPGFGLIIALILLPIVLILMGTLATTLLPATSTLRAVLTVLGAPLVALLIDTLLCAWLLGSRRGWSRTQVSDVIGSALPGVAMVILIAGAGGVFGKVLVDTGIGAVVSEALRNTGLPVLALGFLLTLLLRAVQGSTTVALVTTAGILSPLIATLDLSANHLALLCLAMGGGGLAMSHINDAGYWMFTKLAGLNVADGLRTWTVLVTLLGTLGFVITLLLWPFV”, which protein production is on record?
**A.** The protein production was “failed”.

**Q.** Which protein production does the source give for “MTPPIINLPQRLGRSRRLAYGAATAGAWMVYFYLWAPLATLIAWFFGLRSAYTELYLQHNALDPFALGSLPVIALMSAITTVGWAEYNRLRFVNADKRRRPRTVAEPDVDQRLGATEQLGTLLRHSRISSVAMDKFARPVAVRVVRHR” here?
**A.** Its protein production is “failed”.

**Q.** For “MTPSRDTKIILEGFCHPALNNPKPISVRFEKSILMVTGVNAGGKTMLLKSILSSAFLARYLIPMPILASKSSIGSFKGIAAVLDDPQSAKNDISTFAGRMLSFERFFKERGFLVGVDEIELGTDSDEAASLFKVILEQLIKRDFKIIITTHHKRLAALMAANEEVELMAALYDEKRQMPTFSFLQGTIGKSYAFETAERYGIPPFVIKEAKEVYGQDKEK”, which protein production is on record?
**A.** Its protein production is “failed”.

**Q.** With “MTQAFSRVRFIMTQPSHPGNVGSAARAIKTTGFGELVLVAPRFPDMTAQPEAVTLASGALDVLERAAVHDTLEEALAPVTLAFALTARVRDLGPPPCDIREAAGLARRHLDDTEAGVVAIVLGTERAGLTNAQIELCHRICHIPANPQYSSLNVAQALQLAAWELRYALLAGTGQSLLPASSAQQANPGAAPADGAAVQALLAHWEQALVAVGFLDPAHPKKLMPRMKHLLTRSALSRDEVDMLRGVCTAMIAPNRPK” as the sequence, how does the protein production read?
**A.** The protein production was “failed”.

**Q.** With “MTQDPIANLKLARKGPIVSIIVYLSLSVAKLLAGYLLNASSLIADGFNNLSDIVGNVALLIGLHLASQPADANHKFGHWKIEDLSSLVTSFIMFLVGFQVLIHTIKSIFSGQQVDIDPLGAIVGIVSAFVMLGVYVFNKRLSKRVKSSALVAASKDNLADAVTSIGTSIAIIAASLHLPVIDHIAAMIITFFILKTAFDIFMESSFSLSDGFDSRHLKKYEKAILEIPKIVAVKSQRARTYGSNVYLDIVLEMNPDLSVYESHSITEKVEQLLSDQFSIYDIDIHVEPAMIPEEEIFDNVAKKLYRYEKLILSKVPDYDHYIAKSFQLIDANGQTVNYEQFLNQEIYYPSNFNHFQIESISQKTMLVTYQLNGNQRTSIWRRHESWSLLFHQITPIAKKQLHHTHYRIVKM” as the sequence, how does the protein production read?
**A.** Its protein production is “failed”.

**Q.** For “MTQHPFISRVAVRNYKSIGYCDVNLRPLTYLVGHNGAGKSNFMDALHFVCDALSYSLDSALNERGGINEVRRRSGGHPTHFALRVEFVMQSGQAGRYGFVIGALKNGGYEVQREECVVAGIGKGPFFRIEKGKLRDSSETTFPSVTADRLALVAASGLTAFRPVFDALTAMGFYNLNPKLMRELQKPQDGRLLRPAGENIASVIGHLEKVAPAQMALIQEYLHSVAPMVHGVERKPIGPMETLEFRQDMAGSKHPWRFLAQNMSDGTLRALGVLSALLQGNVDYSPTLIGIEEPETALHPAASAALREALVRASETTQVLVTSHSPDLLDDHSIDADAVLAVVSEAGETKVAPLDEGSRQVMRDHLFSAGELLRMNQLAPDRASLEQQDKAASGDLFGETESVLEHHHHHH”, which protein production is on record?
**A.** Its protein production is “not failed”.

From a protein production outcome set (Wang et al. 2014)
